T1: recombinant extracellular domain of the predominant human CD22-beta isoform (CD22-ECD) (human, UniProt P20273 20-687, CHO-expressed glycoprotein. Capture on an SA chip implies biotinylation, but the patent does not state it for SPR.)
T1 construct: Expressed in CHO-3E7 cells, IMAC and SEC purified, monomeric fraction; Results say it was immobilized onto a CM5 dextran chip; also called human CD22-ECD; hCD22 ecto-domain
T1 sequence: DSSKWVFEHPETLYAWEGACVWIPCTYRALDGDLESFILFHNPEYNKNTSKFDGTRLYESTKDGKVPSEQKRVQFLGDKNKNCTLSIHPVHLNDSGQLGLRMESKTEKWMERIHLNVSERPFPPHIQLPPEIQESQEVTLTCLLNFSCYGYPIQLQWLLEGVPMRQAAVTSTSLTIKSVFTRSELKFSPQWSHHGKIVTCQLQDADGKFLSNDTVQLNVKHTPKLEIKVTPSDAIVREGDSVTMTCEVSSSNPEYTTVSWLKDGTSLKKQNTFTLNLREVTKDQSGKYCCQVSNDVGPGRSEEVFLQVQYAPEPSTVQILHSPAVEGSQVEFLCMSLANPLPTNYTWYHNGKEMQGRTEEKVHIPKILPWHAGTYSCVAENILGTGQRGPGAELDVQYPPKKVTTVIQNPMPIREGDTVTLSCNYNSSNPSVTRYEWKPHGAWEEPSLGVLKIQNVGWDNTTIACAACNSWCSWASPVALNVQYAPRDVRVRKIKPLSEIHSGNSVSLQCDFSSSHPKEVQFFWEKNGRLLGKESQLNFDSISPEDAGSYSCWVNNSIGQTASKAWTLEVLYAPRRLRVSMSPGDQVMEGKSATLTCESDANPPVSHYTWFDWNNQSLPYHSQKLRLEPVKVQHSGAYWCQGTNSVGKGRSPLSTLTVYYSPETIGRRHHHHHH

B1: hCD221ug-6 (VHH)
VHH: QVQLVESGGGVVRPGDSLRLSCTVSGFTLDYYVMGWFRQAPGKEREVVSCISSSDGVTYYADSVKGRFTISRDNAKNTVYLQMNSLKPEDTAIYYCAVDKPFYDGGYYYTCPVDFDSWGQGTQVTVSS
modifications: single biotin at the VHH C-terminal (biotinylation signal sequence)
notes: llama VHH, expressed in E. coli TG1, IMAC purified, monomeric SEC fraction; also called VHH # 5
B2: hCD22100ng-66 (VHH)
VHH: QVQLVESGGGLVQPGGSLRLSCTVSGFSLDYYVMGWFRQAPGKEREVVSCISSSDGATYYPDSVKGRFTISRDNAKKTVYLQMNALKPEDTAIYYCAVDKPFYDGGSYYTCPVDFGSWGQGTQVTVSS
modifications: single biotin at the VHH C-terminal (biotinylation signal sequence)
notes: llama VHH, expressed in E. coli TG1, IMAC purified, monomeric SEC fraction; also called VHH # 4
B3: hCD22100ng-2 (VHH)
VHH: QVKLEESGGGLVQPGGSLRLSCTVSGVTFDYYVMGWFRQAPGKEREVVSCMRNSDGVTYYADSVKGRFTISRDNAKNTVYLQMNSLKPDDTAIYYCAVDKPFYDGGNYYTCPVDFDSWGQGTQVTVSS
modifications: single biotin at the VHH C-terminal (biotinylation signal sequence)
notes: llama VHH, expressed in E. coli TG1, IMAC purified, monomeric SEC fraction; also called VHH # 2
B4: hCD22pas-10 (VHH)
VHH: QVQLVESGGGLVQPGDSLRLSCTVSGFTSDYYAMGWFRQAPGKEREAVSCISSSDGVTYYADSVRGRFTISRDNAKNTVYLEMNSLKPEDTAIYYCAVDKPFYDGGYLYTCPVDFDSWGQGTQVTVSS
modifications: single biotin at the VHH C-terminal (biotinylation signal sequence)
notes: llama VHH, expressed in E. coli TG1, IMAC purified, monomeric SEC fraction; also called VHH # 6
B5: hCD22pas-16 (VHH)
VHH: QVQLVESGGGLVQAGGSLRLSCAASGSTFSLKAMAWYRQAPGKQRERVGVINSDGSYTTDAASVQGRFTISRDNAKNTVYLQMNSLKPEDTAVYYCNTMPPWPWGQGTQVTVSS
modifications: single biotin at the VHH C-terminal (biotinylation signal sequence)
notes: llama VHH, expressed in E. coli TG1, IMAC purified, monomeric SEC fraction; also called VHH # 20
B6: hCD221ug-74 (VHH)
VHH: QVKLEESGGGLVQAGGSLRLSCAGSGFTFDDYAMGWFRQAPGKEREVVSCMGSSDGATYYADSVKGRFTISRDNAKNTVYLQMNSLKPEDTAIYYCAVDKPFYDGGYRYTCPVDFGSWGQGTQVTVSS
modifications: single biotin at the VHH C-terminal (biotinylation signal sequence)
notes: llama VHH, expressed in E. coli TG1, IMAC purified, monomeric SEC fraction; also called VHH # 3
B7: hCD221ug-93 (VHH)
VHH: QVKLEESGGGLVQAGGSLRLSCAASGSTFSSSVMNWYRQAPGKQRELVAVITSSGSTHYADSVKGRFTISRDNAKNTVNLQMNSLKPEDTAVYYCNAQYGRRSDWGQGTQVTVSS
modifications: single biotin at the VHH C-terminal (biotinylation signal sequence)
notes: llama VHH, expressed in E. coli TG1, IMAC purified, monomeric SEC fraction; also called VHH # 11
B8: hCD22pas-33 (VHH)
VHH: QVKLEESGGGLVQPGGSLRLSCTVSGFTLDSYVMGWFRQAPGKEREAVSCISSSDGVTYYADSVKGRFTISRDNAKNTYLQMNSLKPEDTAIYYCAVDKPFYDGGYLYTCPVDFDSWGQGIQVTVSS
modifications: single biotin at the VHH C-terminal (biotinylation signal sequence)
notes: llama VHH, expressed in E. coli TG1, IMAC purified, monomeric SEC fraction; also called VHH # 7
B9: hCD22pas-79 (VHH)
VHH: QVKLEESGGGLVQPGGSLRLSCTVSGRTSSVYGMAWFRQTPGKEREFVAAMSWSGGPTYFADSVKGRFGSSRDNAKNTVYLQMNGLRPEDTAVYYCAVRIRRTLLEPLTKETLYDYWGQGTQVTVSS
modifications: single biotin at the VHH C-terminal (biotinylation signal sequence)
notes: llama VHH, expressed in E. coli TG1, IMAC purified, monomeric SEC fraction; also called VHH # 18
B10: hCD221ug-14 (VHH)
VHH: QVKLEESGGGLVQAGGSLRLSCAVSGRIFRSYVLGWFRQAPGKERELVARIGWSDTYYADSVKGRFTISRDNAKNTVDLQMNSLKPEDTAVYYCAANSPPYGPQRDEFDYWGQGTQVTVSS
modifications: single biotin at the VHH C-terminal (biotinylation signal sequence)
notes: llama VHH, expressed in E. coli TG1, IMAC purified, monomeric SEC fraction; also called VHH # 16; 9-hCD22 1ug-14
B11: hCD221ug-77 (VHH)
VHH: QVKLEESGGGLVQPGGSLRLSCADSGSIFRIAVMNWYRQAPGKERELVAVITSGGETHYAASVKGRFTISRDNAKNTMYLQMNSLKPEDTAVYYCNAKWGQYEYWGQGTQVTVSS
modifications: single biotin at the VHH C-terminal (biotinylation signal sequence)
notes: llama VHH, expressed in E. coli TG1, IMAC purified, monomeric SEC fraction; also called VHH # 8
B12: hCD221ug-75 (VHH)
VHH: QVKLEESGGGLVQPGGSLRLSCAGSGSIFRIAVMNWYRQAPGKERELVAVITSGGDTHYAASVKGRFTISRDNAKNTMYLQINSLKPEDTAVYYCNAKYGRDEYWGQGAQVTVSS
modifications: single biotin at the VHH C-terminal (biotinylation signal sequence)
notes: llama VHH, expressed in E. coli TG1, IMAC purified, monomeric SEC fraction; also called VHH # 10
B13: hCD221ug-87 (VHH)
VHH: QVQLVESGGGLVQPGGSLRLSCADSGSIFRIAVMNWYRQAPGKERELVAVITSGGETHYAASVKGRFTISRDNAKNTMYLQMNSLKPEDTAVYYCNAKWGRDEYWGQGTQVTVSS
modifications: single biotin at the VHH C-terminal (biotinylation signal sequence)
notes: llama VHH, expressed in E. coli TG1, IMAC purified, monomeric SEC fraction; also called VHH # 9

Target: T1, recombinant extracellular domain of the …
Experiment: SPR, Biacore T200, VHH over immobilized CD22-ECD
Protocol: For surface Plasmon resonance, 21 selected VHHs were passed though size exclusion columns, superdex 75 (GE Healthcare), respectively, in 10 mM HEPES, pH 7.4, containing 150 mM NaCl, 3 mM EDTA, monomeric sdAb fractions were collected and protein concentrations were determined by measuring absorbance at 280 nm (A280). Analysis were performed with Biacore T200 instrument (GE Healthcare). All measurements were carried out at 25° C. in 10 mM HEPES, pH 7.4, containing 150 mM NaCl, 3 mM EDTA and 0.005% surfactant P20 (GE Healthcare). Approximately 1919 RUs of the recombinant monomeric CD22-ECD (obtained after SEC purification of the CD22-ECD) were captured on SA sensor chip (GE Healthcare) at a flow rate of 5 uL/min. Various concentration of the monomeric VHHs were injected over CD22-ECD surface, respectively using an SA surface as a reference at a flow rate of 40 µL/min. Surfaces were generated by washing with running buffer. Data were analysed with BIAevaluation 4.1 software.
The monomeric fraction of all 21 VHHs were used for SPR experiment where the human CD22-ECD was immobilized onto the CM5 dextran chip and various VHH concentration (0.6-400 nM) were passed over the sensor chip. […] All of the data collected fit a 1:1 binding model.

| Binder | Kd [nM] | koff [s⁻¹] | kon [M⁻¹ s⁻¹] |
| --- | --- | --- | --- |
| B1 | 2.41 | 0.000129 | 53600 |
| B2 | 0.924 | 0.000134 | 145000 |
| B3 | 2.78 | 0.00013 | 46800 |
| B4 | 19 | 0.00289 | 152000 |
| B5 | 2.75 | 0.001 | 365000 |
| B6 | 7.08 | 0.000655 | 92500 |
| B7 | 7.7 | 0.0105 | 1.36e+06 |
| B8 | 2.6 | 0.00014 | 54000 |
| B9 | 7.72 | 0.00397 | 514000 |
| B10 | 0.00684 | 2.1e-05 | 3.07e+06 |
| B11 | 4.77 | 0.00262 | 550000 |
| B12 | 0.865 | 0.00121 | 1.4e+06 |
| B13 | 0.647 | 0.000797 | 1.23e+06 |

Source: patent US20230265185A1 (NATIONAL RESEARCH COUNCIL OF CANADA, published 2023)
